Experiments:
[1] = biological target: T1, human H7CR (B7-H7 counter-receptor) (human, UniProt Q96BF3 23-282); assay: binding to human H7CR as endogenously expressed on the surface of a cell
T1 construct: Used for H7CR on CHO.hH7CR transfectants, human T cells and tonsil tissue; also called B7-H7CR; CD28H
T1 sequence: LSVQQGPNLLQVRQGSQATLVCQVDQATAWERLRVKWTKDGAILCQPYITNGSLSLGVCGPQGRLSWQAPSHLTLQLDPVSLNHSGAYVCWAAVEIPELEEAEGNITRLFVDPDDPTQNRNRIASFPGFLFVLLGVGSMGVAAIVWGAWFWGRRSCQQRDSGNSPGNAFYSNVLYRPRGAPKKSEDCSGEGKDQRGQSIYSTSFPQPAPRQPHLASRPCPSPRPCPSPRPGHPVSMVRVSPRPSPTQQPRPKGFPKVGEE

[2] = biological target: T2, H7CR-GFP fusion protein on transfected CHO cells (Homo sapiens (Human), UniProt Q96BF3 23-282); assay: flow cytometry, 5 µg/ml variant on H7CR-GFP transfected CHO cells, anti-hIg PE secondary antibody [row HC2-3, column LC1-3]
T2 construct: not shown: GFP part
T2 sequence: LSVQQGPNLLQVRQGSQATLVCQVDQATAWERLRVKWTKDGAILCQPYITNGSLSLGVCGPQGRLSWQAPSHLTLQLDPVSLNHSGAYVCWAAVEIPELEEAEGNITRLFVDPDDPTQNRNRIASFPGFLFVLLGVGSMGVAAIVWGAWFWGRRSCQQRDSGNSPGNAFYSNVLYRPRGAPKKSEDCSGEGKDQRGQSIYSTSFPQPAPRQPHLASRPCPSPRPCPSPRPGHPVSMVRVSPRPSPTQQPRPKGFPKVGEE
Protocol: (§1) 5 μg/ml antibodies from thirty-six variants were incubated with H7CR-GFP fusion protein transfected CHO cells for 30 min at room temperature. Cells were then washed twice with 2 ml flow cytometry buffer, and resuspended in 100 μl flow cytometry buffer. 1 μl anti-hIg PE secondary antibody (Biolegend) was added and incubated with the cells for 15 mins Samples were then washed and resuspended in 100 μl flow cytometry buffer. Flow Cytometry data was acquired using BD Canto (BD Biosciences) in plate format and analyzed by FlowJo software.

[3] = biological target: T2, H7CR-GFP fusion protein on transfected …; assay: flow cytometry, 5 µg/ml variant on H7CR-GFP transfected CHO cells, anti-hIg PE secondary antibody [row HC2-3, column LC2-2]
Protocol: as §1

[4] = biological target: T2, H7CR-GFP fusion protein on transfected …; assay: flow cytometry, 5 µg/ml variant on H7CR-GFP transfected CHO cells, anti-hIg PE secondary antibody [row HC2-3, column LC2-3]
Protocol: as §1

[5] = biological target: T2, H7CR-GFP fusion protein on transfected …; assay: flow cytometry, 5 µg/ml variant on H7CR-GFP transfected CHO cells, anti-hIg PE secondary antibody [row HC2-3, column LC2-1]
Protocol: as §1

B1: 4.5 humanized variant 33 (HC2-3 / LC1-3) (antibody, V domains shown)
VH: QIQLKESGPTLVKPTQTLTLTCTVSGFSITTGGYYWNWIRQPPGKKLEWMALIYTSGRTSYNPSLKSRLTITKDTSKNQVVLTMTNMDPVDTATYYCADMADKGGWFAYWGQGTLVTVSS
VL: DIVMTQSPDSLAVSLGERATINCLSSQSLFSSNTKRNYLNWYQQKPGQSPKLLIYHASTRLSGVPDRFSGSGSGTDFTLTISSLQAEDVADYFCQQHYETPLTFGDGTRLEIK
notes: Variable domains only; detected with anti-hIg secondary; also called VH2C / VL1C
B1: binds [1]; binds [2].

B2: 4.5 humanized variant 35 (HC2-3 / LC2-2) (antibody, V domains shown)
VH: QIQLKESGPTLVKPTQTLTLTCTVSGFSITTGGYYWNWIRQPPGKKLEWMALIYTSGRTSYNPSLKSRLTITKDTSKNQVVLTMTNMDPVDTATYYCADMADKGGWFAYWGQGTLVTVSS
VL: DIVMTQTPLSLPVTPGEPASISCRSSQSLFSSNTKRNYLNWYLQKPGQSPKLLIYHASTRLSGVPDRFSGSGSGTDFTLKISRVEAEDVGDYFCQQHYETPLTFGDGTRLEIK
notes: Variable domains only; detected with anti-hIg secondary; also called VH2C / VL2B
B2: binds [1]; binds [3].

B3: 4.5 humanized variant 36 (HC2-3 / LC2-3) (antibody, V domains shown)
VH: QIQLKESGPTLVKPTQTLTLTCTVSGFSITTGGYYWNWIRQPPGKKLEWMALIYTSGRTSYNPSLKSRLTITKDTSKNQVVLTMTNMDPVDTATYYCADMADKGGWFAYWGQGTLVTVSS
VL: DIVMTQTPSSLPVTPGEPASISCLSSQSLFSSNTKRNYLNWYLQKPGQSPKLLIYHASTRLSGVPDRFSGSGSGTDFTLKISRVEAEDVGDYFCQQHYETPLTFGDGTRLEIK
notes: Variable domains only; detected with anti-hIg secondary; also called VH2C / VL2C
B3: binds [1]; binds [4].

B4: 4.5 humanized variant 34 (HC2-3 / LC2-1) (antibody, V domains shown)
VH: QIQLKESGPTLVKPTQTLTLTCTVSGFSITTGGYYWNWIRQPPGKKLEWMALIYTSGRTSYNPSLKSRLTITKDTSKNQVVLTMTNMDPVDTATYYCADMADKGGWFAYWGQGTLVTVSS
VL: DIVMTQTPLSLPVTPGEPASISCRSSQSLFSSNTKRNYLDWYLQKPGQSPQLLIYHASYRASGVPDRFSGSGSGTDFTLKISRVEAEDVGVYYCQQHYETPLTFGQGTRLEIK
notes: Variable domains only; detected with anti-hIg secondary; also called VH2C / VL2A
B4: binds [1]; binds [5].

From US20160024210A1 (AstraZeneca / MedImmune, published 2016)
